According to patent publication US20130230540A1 (DOMANTIS, published 2013):
Values belong to the binder of their own block, whether it stands above or below them.

How the values were obtained:
[1] = molecular target: T1, recombinant human CD28/Fc Chimera (R&D Systems) (human, UniProt P10747 19-152); assay: SPR (BIAcore), CM5 chip coated with 12500 RU CD28-Fc; dAb injected at 14.7 µM
T1 construct: Bought reagent (R&D Systems, Abingdon, UK); not shown: Fc portion of the bought chimera
Excerpt: (§1) All 58 clones were expressed and purified and tested on the BIAcore against a CM5 chip coated with 12500 RU (response units) of CD28-Fc. […] The protein concentrations used for BIAcore analysis were: […]

[2] = molecular target: T1, recombinant human CD28/Fc Chimera (R&D …); assay: SPR (BIAcore), CM5 chip coated with 12500 RU CD28-Fc; dAb injected at 57.5 µM
Excerpt: as §1

[3] = molecular target: T1, recombinant human CD28/Fc Chimera (R&D …); assay: SPR (BIAcore), CM5 chip coated with 12500 RU CD28-Fc; dAb injected at 16.6 µM
Excerpt: as §1

[4] = molecular target: T1, recombinant human CD28/Fc Chimera (R&D …); assay: SPR (BIAcore), CM5 chip coated with 12500 RU of CD28-Fc, purified dAb, concentration not given
Excerpt: as §1

[5] = molecular target: T1, recombinant human CD28/Fc Chimera (R&D …); assay: SPR (BIAcore), CM5 chip coated with 12500 RU CD28-Fc; dAb injected at 19.4 µM
Excerpt: as §1

[6] = molecular target: T1, recombinant human CD28/Fc Chimera (R&D …); assay: SPR (BIAcore), CM5 chip coated with 12500 RU CD28-Fc; dAb injected at 42.3 µM
Excerpt: as §1

[7] = molecular target: T1, recombinant human CD28/Fc Chimera (R&D …); assay: SPR (BIAcore), CM5 chip coated with 12500 RU CD28-Fc; dAb injected at 68.1 µM
Excerpt: as §1

[8] = molecular target: T1, recombinant human CD28/Fc Chimera (R&D …); assay: SPR (BIAcore), CM5 chip coated with 12500 RU CD28-Fc; dAb injected at 13.8 µM
Excerpt: as §1

binding result [1]: binds
B1: DOM21-27 (other)
VL: DIQMTQSPSSLSASVGDRVTITCRASQSIGTGLRWYQQKPGKAPMLLIYRASILQSGVPSRFSGSGSGTDFTLTISSLQPEDFATYYCQQTTLQPFTFSQGTKVEIKR
notes: Human Vkappa antibody single variable domain (dAb), expressed from pDOM5 and purified

binding result [2]: binds
B2: DOM21-20 (other)
VH: EVQLLESGGGLVQPGGSLRLSCAASGFTFPAYSMIWVRQAPGKGLEWVSTISPLGYSTYYADSVKGRFTISRDNSKNTLYLQMNSLRAEDTAVYYCAEQTAYLNRATEHFDYWGQGTLVTVSS
notes: Human VH antibody single variable domain (dAb), expressed from pDOM5 and purified

binding result [3]: binds
B3: DOM21-28 (other)
VL: DIQMTQSPSSLSASVGDRVTITCRASQSISHSLVWYQQKPGKAPKLLIYWASLLQSGVPSRFSGSGSGTDFTLTISSLQPEDFATYYCQQGMTTPFTFGQGTKVEIKR
notes: as for B1

binding result [4]: binds
B4: DOM21-44 (other)
VH: EVQLLESGGGLVQPGGSLRLSCAASGFTFARYTMVWVRQAPGKGLEWVSAIHFDGRTTYYADSVKGRFTISRDNSKNTLYLQMNSLRAEDTAVYYCAKNEWASLKHFDYWGQGTLVTVSS
notes: as for B2

binding result [5]: binds
B5: DOM21-22 (other)
VH: EVQLLESGGGLVQPGGSLRLSCAASGFTFELYQMGWVRQAPGKGLEWVSTIMPSGNLTYYADSVKGRFTISRDNSKNTLYLQMNSLRAEDTAVYYCAKMWSLNLGFHAAFDYWGQGTLVTVSS
notes: as for B2

binding result [4]: binds
B6: DOM21-38 (other)
VH: EVQLLESGGGLVQPGGSLRLSCAASGFTFILYDMQWVRQAPGKGLEWVSRISANGHDTYYADSVKGRFTISRDNSKNTLYLQMNSLRAEDTAVYYCAKGPHYLFDYWGQGTLVTVSS
notes: as for B2

binding result [6]: binds
B7: DOM21-4 (other)
VH: EVQLLESGGGLVQPGGSLRLSCAASGFTFSRYHMAWVRQAPGKGLEWVSVIDSLGLQTYYADSVKGRFTISRDNSKNTLYLQMNSLRAEDTAVYYCAEYGGAFDYWGQGTLVTVSS
notes: Human VH antibody single variable domain (dAb), DP47/JH4b framework, expressed from pDOM5 and purified

binding result [7]: binds
B8: DOM21-6 (other)
VH: EVQLLESGGGLVQPGGSLRLSCAASGFTFENYGMAWVRQAPGKGLEWVSNIGRAGSVTYYADSVKGRFTISRDNSKNTLYLQMNSLRAEDTAVYYCAKVQSWRTFDYWGQGTLVTVSS
notes: as for B2

binding result [8]: binds
B9: DOM21-18 (other)
VL: DIQMTQSPSSLSASVGDRVTITCRASQYIGTSLNWYQQKPGKAPKLLTYQASLLQSGVPSRFSGSGSGTDFTLTISSLQPEDFATYYCQQLALRPMTFGQGTKVEIKR
notes: Human Vkappa antibody single variable domain (dAb), DPK9/Jk1 framework, expressed from pDOM5 and purified
